Results taken from publication PMC12416549 (2024).

Biological target: T1, TNFR1 (Homo sapiens, UniProt P19438)
T1 chain: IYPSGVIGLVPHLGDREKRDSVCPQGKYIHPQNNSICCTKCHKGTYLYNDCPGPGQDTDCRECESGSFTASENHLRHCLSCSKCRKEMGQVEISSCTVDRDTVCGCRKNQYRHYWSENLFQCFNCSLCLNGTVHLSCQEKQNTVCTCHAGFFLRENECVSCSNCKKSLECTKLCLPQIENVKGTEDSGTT
Assay: yeast display SC50

Binder	apparent Kd (screen)
I21A (designed binder) SMEEEVEKAAKEYEKKKKEAAEKHLEKLKAKDKEAAERFLKELEEAAKEYAKDEAKTMSEEEAKRRAKKYKEKVLLSELSEEEQKEIKEAEEKLVRTILKYVEEAAK	0.653 nM
E3M (designed binder) SMMEEVEKAAKEYEKKKKEAIEKHLEKLKAKDKEAAERFLKELEEAAKEYAKDEAKTMSEEEAKRRAKKYKEKVLLSELSEEEQKEIKEAEEKLVRTILKYVEEAAK	10.4 nM
E104P (designed binder) SMEEEVEKAAKEYEKKKKEAIEKHLEKLKAKDKEAAERFLKELEEAAKEYAKDEAKTMSEEEAKRRAKKYKEKVLLSELSEEEQKEIKEAEEKLVRTILKYVEPAAK	0.446 nM
E82F (designed binder) SMEEEVEKAAKEYEKKKKEAIEKHLEKLKAKDKEAAERFLKELEEAAKEYAKDEAKTMSEEEAKRRAKKYKEKVLLSELSEFEQKEIKEAEEKLVRTILKYVEEAAK	0.539 nM
M2K (designed binder) SKEEEVEKAAKEYEKKKKEAIEKHLEKLKAKDKEAAERFLKELEEAAKEYAKDEAKTMSEEEAKRRAKKYKEKVLLSELSEEEQKEIKEAEEKLVRTILKYVEEAAK	0.49 nM
K18H (designed binder) SMEEEVEKAAKEYEKKKHEAIEKHLEKLKAKDKEAAERFLKELEEAAKEYAKDEAKTMSEEEAKRRAKKYKEKVLLSELSEEEQKEIKEAEEKLVRTILKYVEEAAK	1.27 nM
L28H (designed binder) SMEEEVEKAAKEYEKKKKEAIEKHLEKHKAKDKEAAERFLKELEEAAKEYAKDEAKTMSEEEAKRRAKKYKEKVLLSELSEEEQKEIKEAEEKLVRTILKYVEEAAK	0.79 nM
E92A (designed binder) SMEEEVEKAAKEYEKKKKEAIEKHLEKLKAKDKEAAERFLKELEEAAKEYAKDEAKTMSEEEAKRRAKKYKEKVLLSELSEEEQKEIKEAEAKLVRTILKYVEEAAK	12.5 nM
Y101A (designed binder) SMEEEVEKAAKEYEKKKKEAIEKHLEKLKAKDKEAAERFLKELEEAAKEYAKDEAKTMSEEEAKRRAKKYKEKVLLSELSEEEQKEIKEAEEKLVRTILKAVEEAAK	0.405 nM
L94H (designed binder) SMEEEVEKAAKEYEKKKKEAIEKHLEKLKAKDKEAAERFLKELEEAAKEYAKDEAKTMSEEEAKRRAKKYKEKVLLSELSEEEQKEIKEAEEKHVRTILKYVEEAAK	0.446 nM
K93S (designed binder) SMEEEVEKAAKEYEKKKKEAIEKHLEKLKAKDKEAAERFLKELEEAAKEYAKDEAKTMSEEEAKRRAKKYKEKVLLSELSEEEQKEIKEAEESLVRTILKYVEEAAK	0.653 nM
V6F (designed binder) SMEEEFEKAAKEYEKKKKEAIEKHLEKLKAKDKEAAERFLKELEEAAKEYAKDEAKTMSEEEAKRRAKKYKEKVLLSELSEEEQKEIKEAEEKLVRTILKYVEEAAK	2.25 nM
S59W (designed binder) SMEEEVEKAAKEYEKKKKEAIEKHLEKLKAKDKEAAERFLKELEEAAKEYAKDEAKTMWEEEAKRRAKKYKEKVLLSELSEEEQKEIKEAEEKLVRTILKYVEEAAK	13.8 nM
E42N (designed binder) SMEEEVEKAAKEYEKKKKEAIEKHLEKLKAKDKEAAERFLKNLEEAAKEYAKDEAKTMSEEEAKRRAKKYKEKVLLSELSEEEQKEIKEAEEKLVRTILKYVEEAAK	7.07 nM
K93M (designed binder) SMEEEVEKAAKEYEKKKKEAIEKHLEKLKAKDKEAAERFLKELEEAAKEYAKDEAKTMSEEEAKRRAKKYKEKVLLSELSEEEQKEIKEAEEMLVRTILKYVEEAAK	0.718 nM
K11Y (designed binder) SMEEEVEKAAYEYEKKKKEAIEKHLEKLKAKDKEAAERFLKELEEAAKEYAKDEAKTMSEEEAKRRAKKYKEKVLLSELSEEEQKEIKEAEEKLVRTILKYVEEAAK	0.49 nM
S77N (designed binder) SMEEEVEKAAKEYEKKKKEAIEKHLEKLKAKDKEAAERFLKELEEAAKEYAKDEAKTMSEEEAKRRAKKYKEKVLLNELSEEEQKEIKEAEEKLVRTILKYVEEAAK	3 nM
Q84S (designed binder) SMEEEVEKAAKEYEKKKKEAIEKHLEKLKAKDKEAAERFLKELEEAAKEYAKDEAKTMSEEEAKRRAKKYKEKVLLSELSEEESKEIKEAEEKLVRTILKYVEEAAK	11.4 nM
H24Q (designed binder) SMEEEVEKAAKEYEKKKKEAIEKQLEKLKAKDKEAAERFLKELEEAAKEYAKDEAKTMSEEEAKRRAKKYKEKVLLSELSEEEQKEIKEAEEKLVRTILKYVEEAAK	0.79 nM
A35C (designed binder) SMEEEVEKAAKEYEKKKKEAIEKHLEKLKAKDKECAERFLKELEEAAKEYAKDEAKTMSEEEAKRRAKKYKEKVLLSELSEEEQKEIKEAEEKLVRTILKYVEEAAK	1.69 nM
A30P (designed binder) SMEEEVEKAAKEYEKKKKEAIEKHLEKLKPKDKEAAERFLKELEEAAKEYAKDEAKTMSEEEAKRRAKKYKEKVLLSELSEEEQKEIKEAEEKLVRTILKYVEEAAK	11.4 nM
E19Y (designed binder) SMEEEVEKAAKEYEKKKKYAIEKHLEKLKAKDKEAAERFLKELEEAAKEYAKDEAKTMSEEEAKRRAKKYKEKVLLSELSEEEQKEIKEAEEKLVRTILKYVEEAAK	1.54 nM
K33H (designed binder) SMEEEVEKAAKEYEKKKKEAIEKHLEKLKAKDHEAAERFLKELEEAAKEYAKDEAKTMSEEEAKRRAKKYKEKVLLSELSEEEQKEIKEAEEKLVRTILKYVEEAAK	0.446 nM
K100I (designed binder) SMEEEVEKAAKEYEKKKKEAIEKHLEKLKAKDKEAAERFLKELEEAAKEYAKDEAKTMSEEEAKRRAKKYKEKVLLSELSEEEQKEIKEAEEKLVRTILIYVEEAAK	1.4 nM
A46T (designed binder) SMEEEVEKAAKEYEKKKKEAIEKHLEKLKAKDKEAAERFLKELEETAKEYAKDEAKTMSEEEAKRRAKKYKEKVLLSELSEEEQKEIKEAEEKLVRTILKYVEEAAK	2.73 nM
